Substitutions are numbered along the chain they refer to. Names and notes keep the numbering of the source.
B1: ROPY (RFP-OP18-YFP) FRET sensor: stathmin/oncoprotein18 (OP18) with sYFP2 donor and mScarlet-I R125I acceptor (natural protein)
chain: MASSDIQVKELEKRASGQAFELILSPRSKESVPDFPLSPPKKKDLSLEEIQKKLEAAEERRKSHEAEVLKQLAEKREHEKEVLQKAIEENNNFSKMAEEKLTHKMEANKENREAQMAAKLERLREKDKHVEEVRKNKESKDPADETEAD
B2: ROPY-4E, phospho-mimetic variant of ROPY with four serines mutated into glutamic acids (natural protein)
chain: B1 chain with S16E, S25E, S38E, S63E
B3: ROPY-4A, phospho-blocking variant of ROPY with four serines mutated into alanines (natural protein)
chain: B1 chain with S16A, S25A, S38A, S63A

The binders below were run against free tubulin heterodimers (human (endogenous in HEK293T and HeLa)) (UniProt P68363).
Sequence of UniProt P68363 (P68363 whole entry, chain 1 of 2): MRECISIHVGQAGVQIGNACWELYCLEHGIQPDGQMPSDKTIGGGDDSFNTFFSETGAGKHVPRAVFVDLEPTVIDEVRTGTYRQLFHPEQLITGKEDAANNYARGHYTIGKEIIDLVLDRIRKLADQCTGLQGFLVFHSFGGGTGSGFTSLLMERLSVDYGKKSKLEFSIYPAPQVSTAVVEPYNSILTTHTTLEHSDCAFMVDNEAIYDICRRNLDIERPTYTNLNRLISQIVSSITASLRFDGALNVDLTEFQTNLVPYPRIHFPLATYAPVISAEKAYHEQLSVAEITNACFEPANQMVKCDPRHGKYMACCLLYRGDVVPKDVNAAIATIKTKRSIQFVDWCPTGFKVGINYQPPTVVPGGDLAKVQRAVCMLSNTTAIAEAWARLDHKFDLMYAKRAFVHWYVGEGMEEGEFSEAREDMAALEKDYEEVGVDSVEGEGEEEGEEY
Sequence of UniProt P68363 (P07437 whole entry, chain 2 of 2, further chain): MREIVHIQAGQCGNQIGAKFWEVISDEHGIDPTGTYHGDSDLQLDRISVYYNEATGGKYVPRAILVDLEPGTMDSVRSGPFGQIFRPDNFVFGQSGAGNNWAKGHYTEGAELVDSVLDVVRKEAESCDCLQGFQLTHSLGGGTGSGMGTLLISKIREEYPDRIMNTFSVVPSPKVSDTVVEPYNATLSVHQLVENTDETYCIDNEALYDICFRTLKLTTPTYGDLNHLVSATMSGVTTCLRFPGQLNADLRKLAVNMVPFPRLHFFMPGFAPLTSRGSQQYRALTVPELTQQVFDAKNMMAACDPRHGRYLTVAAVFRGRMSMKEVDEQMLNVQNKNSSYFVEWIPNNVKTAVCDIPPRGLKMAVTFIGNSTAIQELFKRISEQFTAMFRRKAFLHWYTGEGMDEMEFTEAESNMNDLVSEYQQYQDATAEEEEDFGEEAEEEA

Relative FRET increase (RFP/YFP ratio of the intramolecular sensor) after 10 µM paclitaxel for 1 h, HEK293T cells	Binder
1.11	B1
1.01	B2
1.15	B3

Source: PMC7138840
